Experimental data: patent US20260042847A1 (Zymeworks, published 2026)
Positions count from the first letter of the chain named. Blank lines part the entries; values can stand above or below the binder they belong to.

How the values were obtained:
c-Met [1] = target: T1, c-Met (UniProt P08581 25-1390, limits assumed); assay: flow cytometry on EBC-1 cells
T1 construct: whole, on cells; Target on cells

c-Met [2] = target: T1, c-Met; assay: flow cytometry on EBC-1 cells, apparent Kd
[3] = target: T2, Human FcRn with a C-terminal biotin on the large subunit (Human, UniProt P55899 24-297; P61769 21-119, C-terminal biotin); assay: SPR, FcRn captured, antibody injected, pH 5.9
T2 construct: Captured on neutravidin for SPR; also called neonatal Fc receptor

CD64a (FcγRI) = CD64a (FcγRI) (UniProt P12314 16-288, limits assumed); assay: SPR, antibody captured on Protein A, FcγR injected
c-Met [4] = target: T1, c-Met; assay: flow cytometry on H292 cells, apparent Kd
c-Met [5] = target: T1, c-Met; assay: flow cytometry on BT-20 cells, apparent Kd
c-Met [6] = target: T1, c-Met; assay: flow cytometry on EBC-1 cells, apparent Kd; remark: listed apart in the source
[7] = target: T3, CD32a (FcγRIIA), allelic form His131 (UniProt P12318 36-218, limits assumed); assay: SPR, antibody captured on Protein A, FcγR injected
T3 construct: also called CD32aH
T3 sequence (looked up): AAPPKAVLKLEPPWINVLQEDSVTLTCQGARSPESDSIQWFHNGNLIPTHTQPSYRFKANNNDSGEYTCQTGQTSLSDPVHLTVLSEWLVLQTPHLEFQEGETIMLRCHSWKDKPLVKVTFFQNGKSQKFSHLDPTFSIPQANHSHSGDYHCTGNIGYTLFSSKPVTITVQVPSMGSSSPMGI

[8] = target: T4, CD32a (FcγRIIA), allelic form Arg131 (UniProt P12318 36-218, limits assumed); assay: SPR, antibody captured on Protein A, FcγR injected
T4 construct: also called CD32aR
T4 sequence (looked up): T3 sequence (looked up) with H132R

CD32b (FcγRIIB) = target: T5, CD32b (FcγRIIB) (UniProt P31994 43-217, limits assumed); assay: SPR, antibody captured on Protein A, FcγR injected
T5 construct: The 'Y' of CD32bY is not explained; also called CD32bY
T5 sequence (looked up): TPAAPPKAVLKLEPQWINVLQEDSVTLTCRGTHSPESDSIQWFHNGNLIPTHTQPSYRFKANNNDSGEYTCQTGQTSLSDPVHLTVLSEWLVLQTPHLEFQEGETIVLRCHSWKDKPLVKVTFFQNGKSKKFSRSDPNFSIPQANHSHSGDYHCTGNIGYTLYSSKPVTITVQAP

[9] = target: CD16a (FcγRIIIA), allelic form F158 (UniProt P08637 17-208); assay: SPR, antibody captured on Protein A, FcγR injected
[10] = target: T6, CD16a (FcγRIIIA), allelic form V158 (UniProt P08637 17-208); assay: SPR, antibody captured on Protein A, FcγR injected
T6 construct: also called CD16aV
T6 sequence (P08637 17-208 F176V limits assumed): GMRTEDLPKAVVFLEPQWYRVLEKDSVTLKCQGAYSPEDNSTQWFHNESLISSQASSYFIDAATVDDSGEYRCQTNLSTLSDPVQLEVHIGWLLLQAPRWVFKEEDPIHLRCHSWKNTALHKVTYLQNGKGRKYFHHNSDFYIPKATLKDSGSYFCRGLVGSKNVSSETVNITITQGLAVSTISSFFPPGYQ

T1 sequence (P08581 25-1390 limits assumed): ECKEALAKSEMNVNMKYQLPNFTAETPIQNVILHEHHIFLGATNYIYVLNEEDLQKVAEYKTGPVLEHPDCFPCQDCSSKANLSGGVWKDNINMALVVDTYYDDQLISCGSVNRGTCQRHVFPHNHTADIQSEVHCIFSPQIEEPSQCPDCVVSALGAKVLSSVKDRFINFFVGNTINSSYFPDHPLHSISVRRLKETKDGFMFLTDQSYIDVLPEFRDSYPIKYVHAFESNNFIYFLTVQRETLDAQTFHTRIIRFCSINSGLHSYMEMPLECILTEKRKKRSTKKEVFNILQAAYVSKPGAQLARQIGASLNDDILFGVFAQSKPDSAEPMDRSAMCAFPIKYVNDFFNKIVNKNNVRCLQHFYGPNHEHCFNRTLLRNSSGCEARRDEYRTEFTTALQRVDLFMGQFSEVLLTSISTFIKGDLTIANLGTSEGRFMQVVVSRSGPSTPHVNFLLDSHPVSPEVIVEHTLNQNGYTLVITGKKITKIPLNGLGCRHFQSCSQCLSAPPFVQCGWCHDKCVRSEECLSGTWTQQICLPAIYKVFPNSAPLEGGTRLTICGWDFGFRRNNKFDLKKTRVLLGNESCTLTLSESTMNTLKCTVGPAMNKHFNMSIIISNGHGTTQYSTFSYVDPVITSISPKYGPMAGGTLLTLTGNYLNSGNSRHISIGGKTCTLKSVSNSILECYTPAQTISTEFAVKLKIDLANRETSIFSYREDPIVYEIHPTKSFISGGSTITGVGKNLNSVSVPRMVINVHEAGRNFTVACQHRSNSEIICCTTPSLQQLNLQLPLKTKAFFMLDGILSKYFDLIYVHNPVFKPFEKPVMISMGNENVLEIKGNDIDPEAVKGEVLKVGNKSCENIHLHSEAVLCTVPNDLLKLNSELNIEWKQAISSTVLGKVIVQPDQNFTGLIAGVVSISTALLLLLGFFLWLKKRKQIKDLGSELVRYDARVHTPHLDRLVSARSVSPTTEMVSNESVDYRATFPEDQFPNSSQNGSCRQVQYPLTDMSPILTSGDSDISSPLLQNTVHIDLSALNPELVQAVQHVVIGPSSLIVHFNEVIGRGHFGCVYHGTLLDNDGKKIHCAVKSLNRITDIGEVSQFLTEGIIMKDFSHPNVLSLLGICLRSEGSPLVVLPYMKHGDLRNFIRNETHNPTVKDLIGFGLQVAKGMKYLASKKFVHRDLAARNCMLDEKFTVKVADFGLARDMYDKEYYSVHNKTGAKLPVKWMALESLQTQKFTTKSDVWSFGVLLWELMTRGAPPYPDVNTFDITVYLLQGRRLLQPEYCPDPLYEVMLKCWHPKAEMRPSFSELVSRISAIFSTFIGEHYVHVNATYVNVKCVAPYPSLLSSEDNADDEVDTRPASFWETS
Chain of CD64a (FcγRI) (P12314 16-288 limits assumed): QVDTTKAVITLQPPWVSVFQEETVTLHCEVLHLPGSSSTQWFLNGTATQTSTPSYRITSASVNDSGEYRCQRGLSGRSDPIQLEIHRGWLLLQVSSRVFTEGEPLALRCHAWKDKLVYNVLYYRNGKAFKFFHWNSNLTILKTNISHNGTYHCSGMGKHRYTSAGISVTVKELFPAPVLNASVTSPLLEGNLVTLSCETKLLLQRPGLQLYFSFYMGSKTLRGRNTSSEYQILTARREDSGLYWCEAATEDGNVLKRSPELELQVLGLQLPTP
Chain of CD16a (FcγRIIIA), allelic form F158 (P08637 17-208 limits assumed): as the sequence (P08637 17-208 F176V limits assumed) above, with V160F counted along it

- fold greater Kd against control v17427 (c-Met [1]): 5 fold
- Kd (c-Met [2]): 0.57 nM
- Kd [3]: 208 nM
- Kd (CD64a (FcγRI)): 143 nM
B1: v29001 (antibody)
chain 1: QVQLVQSGAEVKKPGASVKVSCKASGYIFTAYTMHWVRQAPGQGLEWMGWIKPNNGLANYAQKFQGRVTMTRDTSISTAYMELSRLRSDDTAVYYCARSEITTEFDYWGQGTLVTVSSASTKGPSVFPLAPSSKSTSGGTAALGCLVKDYFPEPVTVSWNSGALTSGVHTFPAVLQSSGLYSLSSVVTVPSSSLGTQTYICNVNHKPSNTKVDKKVEPKSCDKTHTCPPCPAPELLGGPSVFLFPPKPKDTLMISRTPEVTCVVVDVSHEDPEVKFNWYVDGVEVHNAKTKPREEQYNSTCYRVVSVLTVLHQDWLNGKEYKCKVSNKALPAPIEKTISKAKGQPREPQVYVYPPSRDELTKNQVSLTCLVKGFYPSDIAVEWESNGQPENNYKTTPPVLDSDGSFALVSKLTVDKSRWQQGNVFSCSVMHEALHNHYTQKSLSLSPG
chain 2: B1 chain 1 with Y353L, T368L, K394L, T396W, A407F, V409Y
chain 3: not shown

- Kd (c-Met [4]): 0.02 nM
- Kd (c-Met [2]): 0.1 nM
- Kd (c-Met [5]): 0.02 nM
- Kd (c-Met [6]): 0.14 nM
- Kd [3]: 297 nM
- Kd (CD64a (FcγRI)): 0.0486 nM
- Kd [7]: 410 nM
- Kd [8]: 588 nM
- Kd (CD32b (FcγRIIB)): 2630 nM
- Kd [9]: 1450 nM
- Kd [10]: 461 nM
B2: v17427 (antibody)
chain 1: QVQLVQSGAEVKKPGASVKVSCKASGYIFTAYTMHWVRQAPGQGLEWMGWIKPNNGLANYAQKFQGRVTMTRDTSISTAYMELSRLRSDDTAVYYCARSEITTEFDYWGQGTLVTVSSASTKGPSVFPLAPSSKSTSGGTAALGCLVKDYFPEPVTVSWNSGALTSGVHTFPAVLQSSGLYSLSSVVTVPSSSLGTQTYICNVNHKPSNTKVDKKVEPKSCDKTHTCPPCPAPELLGGPSVFLFPPKPKDTLMISRTPEVTCVVVDVSHEDPEVKFNWYVDGVEVHNAKTKPREEQYNSTYRVVSVLTVLHQDWLNGKEYKCKVSNKALPAPIEKTISKAKGQPREPQVYVYPPSRDELTKNQVSLTCLVKGFYPSDIAVEWESNGQPENNYKTTPPVLDSDGSFALVSKLTVDKSRWQQGNVFSCSVMHEALHNHYTQKSLSLSPG
chain 2: not shown
chain 3: not shown
